Publication PMC11665475, “The CTR hydrophobic residues of Nem1 catalytic subunit are required to form a protein phosphatase complex with Spo7 to activate yeast Pah1 PA phosphatase” (The Journal of Biological Chemistry, 2024)
Where a chain is given by its changes, count along the chain named.

How the values were obtained:
Assay in all cases: cell-based or functional assay
[1] = molecular target: T1, protein A-tagged Nem1 Δ(414–446) (S. cerevisiae, UniProt P38757 1-413)
T1 sequence (looked up): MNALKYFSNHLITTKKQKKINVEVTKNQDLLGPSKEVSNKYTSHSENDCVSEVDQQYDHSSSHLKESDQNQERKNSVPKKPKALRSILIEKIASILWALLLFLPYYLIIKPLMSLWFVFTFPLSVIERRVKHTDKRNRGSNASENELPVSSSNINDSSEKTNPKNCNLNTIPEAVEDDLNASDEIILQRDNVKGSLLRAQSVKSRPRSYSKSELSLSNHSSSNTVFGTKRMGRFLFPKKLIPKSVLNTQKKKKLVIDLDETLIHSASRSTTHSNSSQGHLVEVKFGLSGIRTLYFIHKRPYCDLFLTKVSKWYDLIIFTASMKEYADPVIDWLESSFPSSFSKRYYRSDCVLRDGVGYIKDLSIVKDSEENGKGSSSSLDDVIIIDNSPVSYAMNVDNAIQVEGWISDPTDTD

protein A-tagged Nem1 8A = molecular target: T2, protein A-tagged Nem1 8A (S. cerevisiae, UniProt P38757 1-446, L414 A | L415 A | L417 A | L418 A | L421 A | V430 A | L434 A | L436 A)
T2 sequence (looked up): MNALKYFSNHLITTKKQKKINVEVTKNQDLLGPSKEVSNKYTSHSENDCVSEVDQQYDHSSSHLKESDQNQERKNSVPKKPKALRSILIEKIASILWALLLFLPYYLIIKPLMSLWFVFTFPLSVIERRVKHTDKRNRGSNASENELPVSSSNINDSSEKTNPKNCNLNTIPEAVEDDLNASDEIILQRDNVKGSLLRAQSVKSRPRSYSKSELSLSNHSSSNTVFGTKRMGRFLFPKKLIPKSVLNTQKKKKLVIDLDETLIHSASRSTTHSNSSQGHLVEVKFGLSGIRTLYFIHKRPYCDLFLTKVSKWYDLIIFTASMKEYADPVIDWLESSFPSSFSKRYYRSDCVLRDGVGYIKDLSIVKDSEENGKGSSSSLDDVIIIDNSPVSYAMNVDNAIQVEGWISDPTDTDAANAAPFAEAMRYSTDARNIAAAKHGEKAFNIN

protein A-tagged Nem1 8R = molecular target: T3, protein A-tagged Nem1 8R (S. cerevisiae, UniProt P38757 1-446, L414 R | L415 R | L417 R | L418 R | L421 R | V430 R | L434 R | L436 R)
T3 sequence (looked up): T2 sequence (looked up) with A414R, A415R, A417R, A418R, A421R, A430R, A434R, A436R

Measured: share of purified phosphorylated Pah1 found in the pellet of membranes containing the Nem1-PtA variant and Spo7 after centrifugation at 100,000g (translocation of Pah1 to membranes)

B1: Spo7 (natural protein, S. cerevisiae, UniProt P18410 1-259, looked up)
chain: MEPESIGDVGNHAQDDSASIVSGPRRRSTSKTSSAKNIRNSSNISPASMIFRNLLILEDDLRRQAHEQKILKWQFTLFLASMAGVGAFTFYELYFTSDYVKGLHRVILQFTLSFISITVVLFHISGQYRRTIVIPRRFFTSTNKGIRQFNVKLVKVQSTWDEKYTDSVRFVSRTIAYCNIYCLKKFLWLKDDNAIVKFWKSVTIQSQPRIGAVDVKLVLNPRAFSAEIREGWEIYRDEFWAREGARRRKQAHELRPKSE
≤ 20%: all assays above
